Biological target: T1, mouse HRt (hairless protein aa 490-1182) (Mus musculus, UniProt Q61645)
T1 construct: HR cDNA corresponding to the C-terminal half of HR protein (aa residues 490 to 1182, hereinafter HRt); expressed in transfected cells; host or cells: Saccharomyces cerevisiae PJ69-2A transformed with BD-HRt plasmid, mated with Y187 carrying the human brain cDNA library in pACT2
T1 sequence (Q61645 490-1182): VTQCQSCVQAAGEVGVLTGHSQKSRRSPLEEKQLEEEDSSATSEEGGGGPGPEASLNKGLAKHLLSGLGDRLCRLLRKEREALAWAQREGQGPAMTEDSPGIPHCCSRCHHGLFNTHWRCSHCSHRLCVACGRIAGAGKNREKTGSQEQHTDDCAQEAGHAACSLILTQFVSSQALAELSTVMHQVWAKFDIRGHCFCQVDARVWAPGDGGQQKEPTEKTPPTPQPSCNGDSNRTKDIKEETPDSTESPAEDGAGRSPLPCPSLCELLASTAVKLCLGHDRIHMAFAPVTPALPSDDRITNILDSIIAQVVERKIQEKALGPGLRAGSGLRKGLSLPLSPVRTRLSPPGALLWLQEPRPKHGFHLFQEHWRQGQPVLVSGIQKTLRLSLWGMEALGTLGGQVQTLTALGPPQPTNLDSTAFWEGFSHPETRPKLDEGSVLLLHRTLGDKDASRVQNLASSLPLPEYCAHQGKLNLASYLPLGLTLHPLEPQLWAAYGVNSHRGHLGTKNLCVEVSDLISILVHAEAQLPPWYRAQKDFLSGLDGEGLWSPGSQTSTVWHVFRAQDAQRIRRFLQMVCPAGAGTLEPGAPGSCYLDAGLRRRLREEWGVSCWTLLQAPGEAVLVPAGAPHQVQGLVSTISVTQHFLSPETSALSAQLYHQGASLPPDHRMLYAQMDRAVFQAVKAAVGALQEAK
Experiment: Yeast two-hybrid screen of BD-HRt against human brain cDNA library in AD vector, lacZ coloration on QDO-Xgal plates
Type: cell-based
Conditions: BD-HRt(mouse) x human brain cDNA library in AD-vector
Text: The present example provides for Hairless Protein (HR) interacting partners (HR-IP) using the yeast two-hybrid technology. […] Yeast cells expressing BD-HRt are mated with yeast cells pretransformed with human brain cDNA library in the activation domain (AD) vector.
Cloning of HRt into GAL4 binding domain (BD) yeast two-hybrid (Y2H) vector: The HRt insert from pET32a-HRt is excised as an Eco RI-Xho I fragment (there is a unique Xho I site just adjacent to HRt insert) and inserted at the Eco RI-Sal I sites of Y2H-BD vector pGBKT7 (Catalog No. K1612-B; a component of Matchmaker two-hybrid System 3 (Catalog No. K1612-1) BD Biosciences Clontech, Palo Alto, Calif.) to obtain pGBKT7-HRt in which HRt is fused in-frame to GAL 4 DNA BD (this plasmid is also designated BD-HRt).
Pretransformed human brain […] cDNA Library Screen for HRt interaction partners: Pretransformed human brain […] high-complexity GAL4 cDNA library that has already been amplified and introduced into yeast strain Y187 (MATα) is used to screen for HRt interacting proteins. […] The library host strain Y187 provides a third reporter gene (lacZ) for optional quantification of signal strength. The protocol as described in Clontech user manual (PT3183-1) is used. Briefly, the library is mixed with PJ69-2A strain that has been transformed with the BD-HRt plasmid in YPD medium containing adenine hemisulfate (0.004%) and kanamycin (0.005%) and incubated for 20-24 h at 30° C. The next day, the mating mixture is plated on Leu, Trp, His TDO that selects for two-hybrid interactions, and then the positive clones are screened for growth on Leu, Trp, His, Ade QDO, which is a more stringent condition for interaction. Colonies that grew well on QDO are also screened for lacZ expression by streaking on QDO-Xgal plates. Based on a visual assessment of colonies for the intensity of blue color, the clones are classified into high (H), medium (M), low (L) or very low (VL) categories.
The positive clones are expected to contain an AD-IP (interacting partner) that interacts with BD-HRt. To characterize IP, the sequence of IP is determined and matched to the human genome database. For this purpose, total DNA is isolated from the positive clones and PCR amplified with […] AD LD (long distance)-insert screening amplimers (Catalog No.9103-1; BD Biosciences Clontech, PaloAlto, Calif.). Reaction is conducted in 50 μl volume for 35 cycles using the conditions recommended with the Advantage2 PCR kit (Catalog No. K1910-1; BD Biosciences Clontech, PaloAlto, Calif.).

| Molecule | XGAL (rate and intensity of coloration of colonies on Xgal) |
| --- | --- |
| Human pumilio(PUMH1): human HRt interacting partner, GenBank D43951, SEQ ID NO:44/45 (protein, UniProt Q14671 2-1186, looked up) Pumilio homolog 1: SVACVLKRKAVLWQDSFSPHLKHHPQEPANPNMPVVLTSGTGSQAQPQPAANQALAAGTHSSPVPGSIGVAGRSQDDAMVDYFFQRQHGEQLGGGGSGGGGYNNSKHRWPTGDNIHAEHQVRSMDELNHDFQALALEGRAMGEQLLPGKKFWETDESSKDGPKGIFLGDQWRDSAWGTSDHSVSQPIMVQRRPGQSFHVNSEVNSVLSPRSESGGLGVSMVEYVLSSSPGDSCLRKGGFGPRDADSDENDKGEKKNKGTFDGDKLGDLKEEGDVMDKTNGLPVQNGIDADVKDFSRTPGNCQNSANEVDLLGPNQNGSEGLAQLTSTNGAKPVEDFSNMESQSVPLDPMEHVGMEPLQFDYSGTQVPVDSAAATVGLFDYNSQQQLFQRPNALAVQQLTAAQQQQYALAAAHQPHIGLAPAAFVPNPYIISAAPPGTDPYTAGLAAAATLGPAVVPHQYYGVTPWGVYPASLFQQQAAAAAAATNSANQQTTPQAQQGQQQVLRGGASQRPLTPNQNQQGQQTDPLVAAAAVNSALAFGQGLAAGMPGYPVLAPAAYYDQTGALVVNAGARNGLGAPVRLVAPAPVIISSSAAQAAVAAAAASANGAAGGLAGTTNGPFRPLGTQQPQPQPQQQPNNNLASSSFYGNNSLNSNSQSSSLFSQGSAQPANTSLGFGSSSSLGATLGSALGGFGTAVANSNTGSGSRRDSLTGSSDLYKRTSSSLTPIGHSFYNGLSFSSSPGPVGMPLPSQGPGHSQTPPPSLSSHGSSSSLNLGGLTNGSGRYISAAPGAEAKYRSASSASSLFSPSSTLFSSSRLRYGMSDVMPSGRSRLLEDFRNNRYPNLQLREIAGHIMEFSQDQHGSRFIQLKLERATPAERQLVFNEILQAAYQLMVDVFGNYVIQKFFEFGSLEQKLALAERIRGHVLSLALQMYGCRVIQKALEFIPSDQQNEMVRELDGHVLKCVKDQNGNHVVQKCIECVQPQSLQFIIDAFKGQVFALSTHPYGCRVIQRILEHCLPDQTLPILEELHQHTEQLVQDQYGNYVIQHVLEHGRPEDKSKIVAEIRGNVLVLSQHKFASNVVEKCVTHASRTERAVLIDEVCTMNDGPHSALYTMMKDQYANYVVQKMIDVAEPGQRKIVMHKIRPHIATLRKYTYGKHILAKLEKYYMKNGVDLGPICGPPNGII | M (M = Medium blue in 3-5 days) |
| Human quinone oxidoreductase(NQO2): human HRt interacting partner, GenBank J02888, SEQ ID NO:40/41 (protein, listed as Homo sapiens) PDSNAIRPQLVPHHRTTQQEAGGTMTSATQSARAFSRAPPQTSLWPALPSSLELELLQRQPQQASLHIEVAGPIAQTRETHRELYVFIFLL | M (M = Medium blue in 3-5 days) |
| Human POM-ZP3: human HRt interacting partner, GenBank U10099, SEQ ID NO:36/37 (protein, listed as Homo sapiens) LEQKLALAERIRGHVLSLALQMYGCRVIQKALEFIPSDQQNEMVRELDGHVLKCVKDQNGNHVVQKCIECVQPQSLQFIIDAFKGQVFALSTHP | M (M = Medium blue in 3-5 days) |
| Human hypothalamus protein HSMNP1: human HRt interacting partner, GenBank AF220191, SEQ ID NO:30/31 (protein, listed as Homo sapiens) DRRFSRSAIPEQIISSTLSSPSSNAPDPCAKETVLSALKEKKKKRTVEEEDQIFLDGQENKRSCLVDGLTDASSAFKVPRPGPDTLQFTVDVFHFANDSRNMIYITCHLKVTLAEQDPDELNKACSFSKPSNSWFPVEGPADICQCCNKGDCGTPSHSRRQPRVVSQWSTSASRNRRHVTEEADVTVGATDLPGQEW | M (M = Medium blue in 3-5 days) |
| Human alpha enolase: human HRt interacting partner, GenBank M14328, SEQ ID NO:32/33 (protein, listed as Homo sapiens) DGEPCFSCLYGNGPHPPAPQPSSRFNDAPAADKEPSVVQFCEFVSAPEVSRWAGPIIDVLLDYVGNVQLCSRLKEHIDSFEDWAVIKEKAEPPRPLAHLCRLRVRKAIGKYRIKLLDTLPLPGRLIRYLKYENTQ | M (M = Medium blue in 3-5 days) |
| Human transcription factor Y, gamma: human HRt interacting partner, GenBank BC005003, SEQ ID NO:53/54 (protein, UniProt Q13952 1-458, looked up) Nuclear transcription factor …: MSTEGGFGGTSSSDAQQSLQSFWPRVMEEIRNLTVKDFRVQELPLARIKKIMKLDEDVKMISAEAPVLFAKAAQIFITELTLRAWIHTEDNKRRTLQRNDIAMAITKFDQFDFLIDIVPRDELKPPKRQEEVRQSVTPAEPVQYYFTLAQQPTAVQVQGQQQGQQTTSSTTTIQPGQIIIAQPQQGQTTPVTMQVGEGQQVQIVQAQPQGQAQQAQSGTGQTMQVMQQIITNTGEIQQIPVQLNAGQLQYIRLAQPVSGTQVVQGQIQTLATNAQQGQRNASQGKPRRCLKETLQITQTEVQQGQQQFSQFTDGQRNSVQQARVSELTGEAEPREVKATGNSTPCTSSLPTTHPPSHRAGASCVCCSQPQQSSTSPPPSDALQWVVVEVSGTPNQLETHRELHAPLPGMTSLSPLHPSQQLYQIQQVTMPAGQDLAQPMFIQSANQPSDGQAPQVTGD | L (L = Low blue in 5-7 days) |
| Human alpha-tubulin: human HRt interacting partner, GenBank AF141348, SEQ ID NO:50 (protein, listed as Homo sapiens) QSLGLLDQNPHLAQELRPQIQELLHSEHLGPSELEAPAPGGSSEDKGGLQPPDSKDADTPMTLPKGSTEQDAASPEKEKMNPLEQYERKVNASVPRGFPFHSSEIQRDELAPAGTGVSREAVSGLLIMGAGGGSLIVLSMLLLRRKKPYGAISHGVVEVDPMLTLEEQQLRELQRHGYENPTYRFLEERP | L (L = Low blue in 5-7 days) |
| Human VPS41: human HRt interacting partner, GenBank U87309, SEQ ID NO:46/47 (protein, UniProt P49754 1-854, looked up) Vacuolar protein …: MAEAEEQETGSLEESTDESEEEESEEEPKLKYERLSNGVTEILQKDAASCMTVHDKFLALGTHYGKVYLLDVQGNITQKFDVSPVKINQISLDESGEHMGVCSEDGKVQVFGLYSGEEFHETFDCPIKIIAVHPHFVRSSCKQFVTGGKKLLLFERSWMNRWKSAVLHEGEGNIRSVKWRGHLIAWANNMGVKIFDIISKQRITNVPRDDISLRPDMYPCSLCWKDNVTLIIGWGTSVKVCSVKERHASEMRDLPSRYVEIVSQFETEFYISGLAPLCDQLVVLSYVKEISEKTEREYCARPRLDIIQPLSETCEEISSDALTVRGFQENECRDYHLEYSEGESLFYIVSPRDVVVAKERDQDDHIDWLLEKKKYEEALMAAEISQKNIKRHKILDIGLAYINHLVERGDYDIAARKCQKILGKNAALWEYEVYKFKEIGQLKAISPYLPRGDPVLKPLIYEMILHEFLESDYEGFATLIREWPGDLYNNSVIVQAVRDHLKKDSQNKTLLKTLAELYTYDKNYGNALEIYLTLRHKDVFQLIHKHNLFSSIKDKIVLLMDFDSEKAVDMLLDNEDKISIKKVVEELEDRPELQHVYLHKLFKRDHHKGQRYHEKQISLYAEYDRPNLLPFLRDSTHCPLEKALEICQQRNFVEETVYLLSRMGNSRSALKMIMEELHDVDKAIEFAKEQDDGELWEDLILYSIDKPPFITGLLNNIGTHVDPILLIHRIKEGMEIPNLRDSLVKILQDYNLQILLREGCKKILVADSLSLLKKMHRTQMKGVLVDEENICESCLSPILPSDAAKPFSVVVFHCRHMFHKECLPMPSMNSAAQFCNICSAKNRGPGSAILEMKK | M (M = Medium blue in 3-5 days) |

Source: US20040086945A1, “Hairless protein-interacting partner complexes and methods thereto” (The Procter & Gamble Company, priority 2002, published 2004)
